Broadly, the Km is the concentration of substrate that gives half-maximal velocity.

This passage reports Km results from paper PMC9599917, “Reshaping the Binding Pocket of the Neurotransmitter:Solute Symporter (NSS) Family Transporter SLC6A14 (ATB^0,+) Selectively Reduces Access for Cationic Amino Acids and Derivatives” (Biomolecules, 2022).

What all share (format): cell-based, Homo sapiens
Substrate in series [1]: N=C(N)NCCC[C@H](N)C(=O)O
Briefly: two-electrode voltage clamp in oocytes (Km); competition with [3H]serine uptake. Conditions: Na+ and Cl- substrate binding pocket, competes with serine; lost in V128F. In general terms: Two-electrode voltage clamp holds a large cell at a set potential and records current.

Substrate in series [2]: N[C@@H](CO)C(=O)O
Briefly: two-electrode voltage clamp in oocytes (Km); radiolabelled uptake. Conditions: Na+ and Cl-.

Substrate in series [3]: N[C@@H](CO)C(=O)O
The description is as above. Conditions: Na+ and Cl-. An excerpt: two-electrode voltage clamp in oocytes (Km); radiolabelled uptake on SLC6A14 (ATB0,+) | In SLC6A14-V128I, the affinity for serine increased by five-fold
The source holds these as a separate data set.

Substrate in series [4]: N=C(N)NCCC[C@H](N)C(=O)O
Briefly: two-electrode voltage clamp in oocytes (Km). Conditions: Na+ and Cl-.

B1: SLC6A14 (ATB0,+) (Homo sapiens) (protein)
chain: MDKLKCPSFFKCREKEKVSASSENFHVGENDENQDRGNWSKKSDYLLSMIGYAVGLGNVWRFPYLTYSNGGGAFLIPYAIMLALAGLPLFFLECSLGQFASLGPVSVWRILPLFQGVGITMVLISIFVTIYYNVIIAYSLYYMFASFQSELPWKNCSSWSDKNCSRSPIVTHCNVSTVNKGIQEIIQMNKSWVDINNFTCINGSEIYQPGQLPSEQYWNKVALQRSSGMNETGVIVWYLALCLLLAWLIVGAALFKGIKSSGKVVYFTALFPYVVLLILLVRGATLEGASKGISYYIGAQSNFTKLKEAEVWKDAATQIFYSLSVAWGGLVALSSYNKFKNNCFSDAIVVCLTNCLTSVFAGFAIFSILGHMAHISGKEVSQVVKSGFDLAFIAYPEALAQLPGGPFWSILFFFMLLTLGLDSQFASIETITTTIQDLFPKVMKKMRVPITLGCCLVLFLLGLVCVTQAGIYWVHLIDHFCAGWGILIAAILELVGIIWIYGGNRFIEDTEMMIGAKRWIFWLWWRACWFVITPILLIAIFIWSLVQFHRPNYGAIPYPDWGVALGWCMIVFCIIWIPIMAIIKIIQAKGNIFQRLISCCRPASNWGPYLEQHRGERYKDMVDPKKEADHEIPTVSGSRKPE
notes: human SLC6A14 expressed in Xenopus laevis oocytes
Consider B1, for which the Km in series [1] is recorded as 91 ± 11 µM; in series [2] it was 106 ± 5 µM.

B2: SLC6A14 (ATB0,+) (Homo sapiens; V128F) (protein)
chain: MDKLKCPSFFKCREKEKVSASSENFHVGENDENQDRGNWSKKSDYLLSMIGYAVGLGNVWRFPYLTYSNGGGAFLIPYAIMLALAGLPLFFLECSLGQFASLGPVSVWRILPLFQGVGITMVLISIFFTIYYNVIIAYSLYYMFASFQSELPWKNCSSWSDKNCSRSPIVTHCNVSTVNKGIQEIIQMNKSWVDINNFTCINGSEIYQPGQLPSEQYWNKVALQRSSGMNETGVIVWYLALCLLLAWLIVGAALFKGIKSSGKVVYFTALFPYVVLLILLVRGATLEGASKGISYYIGAQSNFTKLKEAEVWKDAATQIFYSLSVAWGGLVALSSYNKFKNNCFSDAIVVCLTNCLTSVFAGFAIFSILGHMAHISGKEVSQVVKSGFDLAFIAYPEALAQLPGGPFWSILFFFMLLTLGLDSQFASIETITTTIQDLFPKVMKKMRVPITLGCCLVLFLLGLVCVTQAGIYWVHLIDHFCAGWGILIAAILELVGIIWIYGGNRFIEDTEMMIGAKRWIFWLWWRACWFVITPILLIAIFIWSLVQFHRPNYGAIPYPDWGVALGWCMIVFCIIWIPIMAIIKIIQAKGNIFQRLISCCRPASNWGPYLEQHRGERYKDMVDPKKEADHEIPTVSGSRKPE
notes: human SLC6A14-V128F expressed in Xenopus laevis oocytes
For B2, the Km in series [2] is 142 ± 11 µM.

B3: SLC6A14 (ATB0,+) (Homo sapiens; V128I) (protein)
chain: MDKLKCPSFFKCREKEKVSASSENFHVGENDENQDRGNWSKKSDYLLSMIGYAVGLGNVWRFPYLTYSNGGGAFLIPYAIMLALAGLPLFFLECSLGQFASLGPVSVWRILPLFQGVGITMVLISIFITIYYNVIIAYSLYYMFASFQSELPWKNCSSWSDKNCSRSPIVTHCNVSTVNKGIQEIIQMNKSWVDINNFTCINGSEIYQPGQLPSEQYWNKVALQRSSGMNETGVIVWYLALCLLLAWLIVGAALFKGIKSSGKVVYFTALFPYVVLLILLVRGATLEGASKGISYYIGAQSNFTKLKEAEVWKDAATQIFYSLSVAWGGLVALSSYNKFKNNCFSDAIVVCLTNCLTSVFAGFAIFSILGHMAHISGKEVSQVVKSGFDLAFIAYPEALAQLPGGPFWSILFFFMLLTLGLDSQFASIETITTTIQDLFPKVMKKMRVPITLGCCLVLFLLGLVCVTQAGIYWVHLIDHFCAGWGILIAAILELVGIIWIYGGNRFIEDTEMMIGAKRWIFWLWWRACWFVITPILLIAIFIWSLVQFHRPNYGAIPYPDWGVALGWCMIVFCIIWIPIMAIIKIIQAKGNIFQRLISCCRPASNWGPYLEQHRGERYKDMVDPKKEADHEIPTVSGSRKPE
notes: human SLC6A14-V128I expressed in Xenopus laevis oocytes
Regarding B3, the Km in series [3] is 20 ± 3 µM; in series [4], 60 ± 8 µM.
